Measured values reported in patent publication US5434073.

How the values were obtained:
[1] = biological target: human thrombin (Sigma) (human) (UniProt P00734)
[2] = biological target: plasminogen (Sigma P-7397)

Substance	specific activity in anti-thrombin units (inhibition of thrombin catalysed hydrolysis of CHROMOZYM TH) [1] [U/mg]	streptokinase activity by the S2251 chromogenic assay [2] [u/ml]
hirudin-IEGR-hirudin fusion protein	588	
recombinant hirudin sample	6600	
thrombin cleavable streptokinase-streptokinase fusion protein		18400
